Reference: paper PMC9107221 (2022)

B1: Chikungunya/SL-CK1 E2 glycoprotein (natural protein)
chain: not shown

Experiments:
Test in all cases: SPR
[1] = target: B1
[2] = target: BiNb-2E8 (alpaca)
[3] = target: TriNb-3C5 (alpaca)
[4] = target: BiNb-3C5 (alpaca)
[5] = target: TriNb-2E8 (alpaca)

Row | Binder | koff [1] [s⁻¹] | koff [2] [s⁻¹] | koff [3] [s⁻¹] | koff [4] [s⁻¹] | koff [5] [s⁻¹]
1 | MoNb-3C5 (VHH) VHH: AVQLVESGGGLVQAGGSLRLSCAASGRSFSAYTMAWFRQAPGKEREWMASIVRSGGPTYYADSVKDRFTISRENARNTAYLQMNSLKPEDTAVYYCAADLGWTYSRSPELFGSWGQGTQVTVSS | 0.00991 | – | – | – | –
2 | B1 | – | 0.000352 | 0.00609 | 0.00549 | 0.00274
